We go through 2 molecules from article PMC5241105 (Science (New York, N.Y.), 2016).

The target in the assay is thermolysin cleaved Ebola virus GP (GPTHL) (Ebola virus (EBOV), UniProt Q05320). Briefly: BLI.

The term Kd denotes the equilibrium constant for the complex coming apart.

B1: Fab114 (antigen-binding fragment of mAb114) (Fab, V domains shown)
VH: EVQLVESGGGLIQPGGSLRLSCAASGFALRMYDMHWVRQTIDKRLEWVSAVGPSGDTYYADSVKGRFAVSRENAKNSLSLQMNSLTAGDTAIYYCVRSDRGVAGLFDSWGQGILVTVSS
VL: DIQMTQSPSSLSASVGDRITITCRASQAFDNYVAWYQQRPGKVPKLLISAASALHAGVPSRFSGSGSGTHFTLTISSLQPEDVATYYCQNYNSAPLTFGGGTKVEIK
The molecule B1 yielded an equilibrium dissociation constant (Kd) of 8 nM.

B2: Fab100 (antigen-binding fragment of mAb100) (Fab, V domains shown)
VH: QVQLQESGPGLVKPSDTLSLTCTVSGGSLSSFYWSWIRQPPGKGLEWIGYIYYSGSPNYSPSLESRVTMSVDTTRNQISLKLDSVTAADTAVYYCVRASRSYYWGSYRPTAFDSWGQGTLVTVSS
VL: YELTQPLSVSVSPGQTAIFTCSGDNLGDKYVCWFQQRPGQSPMLLIYQDNKRPSGIPERFSGSNSGNTATLTISGTQSTDEADYYCQTWDSTVVFGGGTKLTVL
On to B2, for which the binding result is “binds”.
